The text below walks through data of patent US20210253725A1 (BIONTECH, published 2021).

Substitutions are numbered along the chain they refer to. Names may count otherwise.

B1: P018.S.04.A.H04 (antibody, V domains shown)
VH: QSVEESGGRLVTPGTPLTLTCTVSRFSLSTSTMTWVRQAPGKGLEWIGIINGGGSAYYANWAKGRFTISKTSTTVDLKITSPTTEDTATYFCARSYDSYDDIYGTSRLYAFDPWGPGTLVTVSS
VL: AYDMTQTPASVEVAVGGTVTINCQASESIYSNLAWYQQKPGQPPKLLIYRASYLASGVSSRFKGSGSGTQFTLTISGVESADAATYYCQQGYSSSDVDNAFGGGTEVVVK
notes: V regions on human Ig constant parts; also called AB27_79
B2: P018.S.03.A.C02 (antibody, V domains shown)
VH: B1 VH
VL: B1 VL with A14V, N22S, S31A, D96N, A100S
notes: V regions on human Ig constant parts; also called AB27_44
B3: P018.S.01.A.B04 (antibody, V domains shown)
VH: QEQLEESGGRLVTPGGTLTLTCTASGFSLSSYDMSWVRQAPGKGLEWIGYIWSDGNTDYASWAAGRFTASRASTTVDLKMTSLTTEDTATYFCARGYTGFFLWGPGTLVTVSS
VL: DVVMTQTPSSVSAAVGGTVTIKCQASQSIGSSYLSWYQQKPGQPPKLLIYKTSTLASGVPSRFKGSGSGTEFTLTISDLESDDAATYYCQCTYYGGSWRVAFGGGTEVVVK
notes: V regions on human Ig constant parts; also called AB27_5
B4: P018.S.01.A.B05 (antibody, V domains shown)
VH: B3 VH with S61T
VL: B3 VL with G96S
notes: V regions on human Ig constant parts; also called AB27_6
B5: P018.S.05.A.H02 (antibody, V domains shown)
VH: B3 VH with S30N
VL: B3 VL with K51E, T52A
notes: V regions on human Ig constant parts; also called AB27_94
B6: P018.S.01.A.G02 (antibody, V domains shown)
VH: B3 VH with S61T
VL: B3 VL
notes: V regions on human Ig constant parts; also called AB27_21
B7: P018.S.01.A.D04 (antibody, V domains shown)
VH: B3 VH with S31N
VL: B3 VL with A13T, G17D
notes: V regions on human Ig constant parts; also called AB27_12
B8: P018.S.03.A.H05 (antibody, V domains shown)
VH: QSLEESGGDLVKPGASLTLTCTASGFSFSDRHYMCWVRQAPGKGLEWIGSIYTGKDSIDYASWAKGRFTISKTSSTTVTLQMTSLTAADTATYFCARDLLYGSSSGYLHTWGPGTLVTVSS
VL: DIVMTQTPSSVSEPVGGTVTIKCQASHNIYSNLAWYQQKLGQPPKLLIYYASTLASGVPSRFKGSGSGTEYTLTISDLESDDAATYYCQSAYYGSIDITFGGGTEVVAQ
notes: V regions on human Ig constant parts; also called AB27_63
Also: test concentration or dose not given here.

One experiment deals with T1, CD27 expressed on the cell surface (HT1080_CD27 cells) (human, UniProt P26842 20-260).
T1 construct: whole, on cells; also called K562_CD27
T1 sequence (looked up): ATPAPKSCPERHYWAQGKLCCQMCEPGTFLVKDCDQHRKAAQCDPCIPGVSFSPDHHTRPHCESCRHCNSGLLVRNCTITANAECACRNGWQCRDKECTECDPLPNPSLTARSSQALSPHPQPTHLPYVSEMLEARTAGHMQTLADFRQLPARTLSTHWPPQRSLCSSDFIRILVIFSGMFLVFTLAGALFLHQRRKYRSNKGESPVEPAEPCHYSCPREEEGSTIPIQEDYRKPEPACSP
The experiment in a line: cellular binding assay, HT1080_CD27 cells.
Regarding B1, the “Cellular binding assay [RFU]” value came to 291 RFU.

For B2, the “Cellular binding assay [RFU]” value is 317 RFU.

Regarding B3, the “Cellular binding assay [RFU]” value is 382 RFU.

As to B4, the “Cellular binding assay [RFU]” value is 376 RFU.

In the case of B5, the “Cellular binding assay [RFU]” value worked out at 336 RFU.

Turning to B6, the “Cellular binding assay [RFU]” value came out at 363 RFU.

As for B7, the “Cellular binding assay [RFU]” value was 341 RFU.

With B8, the “Cellular binding assay [RFU]” value came out at 294 RFU.

The next experiment deals with T1, CD27 expressed on the cell surface …. The experiment can be described thus: cell-based or functional assay.
B1: the “IL-8, cross-linked by F(ab')2 fragment [abs. corr.]” value (“IL-8, cross-linked” for short) was 1.98 abs. corr and the “IL-8 [abs. corr.]” value was 0.579 abs. corr.

Turning to B2, the “IL-8, cross-linked” value turned out to be 1.58 abs. corr and the “IL-8 [abs. corr.]” value was 0.373 abs. corr.

B3: the “IL-8, cross-linked” value was determined as 2.12 abs. corr and the “IL-8 [abs. corr.]” value is 0.582 abs. corr.

On to B4, for which the “IL-8, cross-linked” value was 1.88 abs. corr and the “IL-8 [abs. corr.]” value was 0.453 abs. corr.

For the molecule B5, the “IL-8, cross-linked” value turned out to be 1.9 abs. corr and the “IL-8 [abs. corr.]” value was determined as 0.369 abs. corr.

As to B6, the “IL-8, cross-linked” value was 1.88 abs. corr and the “IL-8 [abs. corr.]” value turned out to be 0.848 abs. corr.

Take B7: the “IL-8, cross-linked” value came to 2.2 abs. corr and the “IL-8 [abs. corr.]” value was determined as 0.175 abs. corr.

Take B8: the “IL-8, cross-linked” value was 1.39 abs. corr and the “IL-8 [abs. corr.]” value was 0.401 abs. corr.

The next experiment concerns the target T2, CD27 protein (His-tagged, Sino Biological Inc. 10039-H08B1) (human, UniProt P26842 20-192).
T2 construct: bought; coated onto ELISA plates; also called human CD27; recombinant protein; not shown: His tag
T2 sequence (looked up): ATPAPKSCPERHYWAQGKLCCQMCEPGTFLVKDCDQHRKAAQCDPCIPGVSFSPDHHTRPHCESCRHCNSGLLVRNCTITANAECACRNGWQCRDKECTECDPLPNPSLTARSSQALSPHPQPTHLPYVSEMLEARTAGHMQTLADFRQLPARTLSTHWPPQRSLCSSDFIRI
The experiment in a line: ELISA on coated His-tagged CD27.
In the case of B1, the “ELISA [abs. corr.]” value was 3.46 abs. corr.

Turning to B2, the “ELISA [abs. corr.]” value was 3.36 abs. corr.

Consider B3, for which the “ELISA [abs. corr.]” value came to 3.36 abs. corr.

In the case of B4, the “ELISA [abs. corr.]” value is 3.5 abs. corr.

Consider B5, for which the “ELISA [abs. corr.]” value was found to be 3.47 abs. corr.

On to B6, for which the “ELISA [abs. corr.]” value is 3.67 abs. corr.

On to B7, for which the “ELISA [abs. corr.]” value is 3.4 abs. corr.

For B8, the “ELISA [abs. corr.]” value is 3.36 abs. corr.
